Sequences and labels used below:
B1: unnamed (protein)
chain: MSEEVSKNLSETLFVKHKQAKETSALTQYMPTSQSLLDEIKEKNGFSWYRNLRRLQWVWQGVDPIEQEQVLARIASSKHSRTDEQWLDTVMGYHSGNWAYEWTRLGMEHQKRAGEMTNEAASEALFSASLCYSIAGYPHLKSDNLAIQAQVLANSAYLEAAKKSKYIIKQLEIPFEKGKITAHLHLTNTDKPHPVVIVSAGLDSLQTDMWRLFRDHLAKHDIAMLTVDMPSVGYSSKYPLTEDYSRLHQAVLNELFSIPYVDHHRVGLIGFRFGGNAMVRLSFLEQEKIKACVILGAPIHDIFASPQKLQQMPKMYLDVLASRLGKSVVDIYSLSGQMAAWSLKVQGFLSSRKTKVPILAMSLEGDPVSPYSDNQMVAFFSTYGKAKKISSKTITQGYEQSLDLAIKWLEDELLR
B2: unnamed (protein)
chain: MRLHRLRARLSAVACGLLLLLVRGQGQDSASPIRTTHTGQVLGSLVHVKGANAGVQTFLGIPFAKPPLGPLRFAPPEPPESWSGVRDGTTHPAMCLQDLTAVESEFLSQFNMTFPSDSMSEDCLYLSIYTPAHSHEGSNLPVMVWIHGGALVFGMASLYDGSMLAALENVVVVIIQYRLGVLGFFSTGDKHATGNWGYLDQVAALRWVQQNIAHFGGNPDRVTIFGESAGGTSVSSLVVSPISQGLFHGAIMESGVALLPGLIASSADVISTVVANLSACDQVDSEALVGCLRGKSKEEILAINKPFKMIPGVVDGVFLPRHPQELLASADFQPVPSIVGVNNNEFGWLIPKVMRIYDTQKEMDREASQAALQKMLTLLMLPPTFGDLLREEYIGDNGDPQTLQAQFQEMMADSMFVIPALQVAHFQCSRAPVYFYEFQHQPSWLKNIRPPHMKADHGDELPFVFRSFFGGNYIKFTEEEEQLSRKMMKYWANFARNGNPNGEGLPHWPLFDQEEQYLQLNLQPAVGRALKAHRLQFWKKALPQKIQELEEPEERHTEL
B3: unnamed (protein)
chain: MWLLPLVLTSLASSATWAGQPASPPVVDTAQGRVLGKYVSLEGLAQPVAVFLGVPFAKPPLGSLRFAPPQPAEPWSFVKNTTSYPPMCCQDPVVEQMTSDLFTNGKERLTLEFSEDCLYLNIYTPADLTKRGRLPVMVWIHGGGLVLGGAPMYDGVVLAAHENVVVVAIQYRLGIWGFFSTGDEHSRGNWGHLDQVAALHWVQENIANFGGDPGSVTIFGESAGGESVSVLVLSPLAKNLFHRAISESGVALTVALVRKDMKAAAKQIAVLAGCKTTTSAVFVHCLRQKSEDELLDLTLKMKFLTLDFHGDQRESHPFLPTVVDGVLLPKMPEEILAEKDFNTVPYIVGINKQEFGWLLPTMMGFPLSEGKLDQKTATSLLWKSYPIANIPEELTPVATDKYLGGTDDPVKKKDLFLDLMGDVVFGVPSVTVARQHRDAGAPTYMYEFQYRPSFSSDKKPKTVIGDHGDEIFSVFGFPLLKGDAPEEEVSLSKTVMKFWANFARSGNPNGEGLPHWPMYDQEEGYLQIGVNTQAAKRLKGEEVAFWNDLLSKEAAKKPPKIKHAEL
B4: unnamed (protein)
chain: MDGVLWRVRTAALMAALLALAAWALVWASPSVEAQSNPYQRGPNPTRSALTADGPFSVATYTVSRLSVSGFGGGVIYYPTGTSLTFGGIAMSPGYTADASSLAWLGRRLASHGFVVLVINTNSRFDYPDSRASQLSAALNYLRTSSPSAVRARLDANRLAVAGHSMGGGGTLRIAEQNPSLKAAVPLTPWHTDKTFNTSVPVLIVGAEADTVAPVSQHAIPFYQNLPSTTPKVYVELDNASHFAPNSNNAAISVYTISWMKLWVDNDTRYRQFLANVNDPALSDFRTNNRHAQ
B5: unnamed (protein)
chain: MIRMALKPLVAACLLASLSTAPQAAPSPYSTLVVFGDSLSDAGQFPDPAGPAGSTSRFTNRVGPTYQNGSGEIFGPTAPMLLGNQLGIAPGDLAASTSPVNAQQGIADGNNWAVGGYRTDQIYDSITAANGSLIERDNTLLRSRDGYLVDRARQGLGADPNALYYITGGGNDFLQGRILNDVQAQQAAGRLVDSVQALQQAGARYIVVWLLPDLGLTPATFGGPLQPFASQLSGTFNAELTAQLSQAGANVIPLNIPLLLKEGMANPASFGLAADQNLIGTCFSGNGCTMNPTYGINGSTPDPSKLLFNDSVHPTITGQRLIADYTYSLLSAPWELTLLPEMAHGTLRAYQDELRSQWQADWENWQNVGQWRGFVGGGGQRLDFDSQDSAASGDGNGYNLTLGGSYRIDEAWRAGVAAGFYRQKLEAGAKDSDYRMNSYMASAFVQYQENRWWADAALTGGYLDYDDLKRKFALGGGERSEKGDTNGHLWAFSARLGYDIAQQADSPWHLSPFVSADYARVEVDGYSEKGASATALDYDDQKRSSKRLGAGLQGKYAFGSDTQLFAEYAHEREYEDDTQDLTMSLNSLPGNRFTLEGYTPQDHLNRVSLGFSQKLAPELSLRGGYNWRKGEDDTQQSVSLALSLDF
B6: unnamed (protein)
chain: MSKISEAVKRARAAFSSGRTRPLQFRIQQLEALQRLIQEQEQELVGALAADLHKNEWNAYYEEVVYVLEEIEYMIQKLPEWAADEPVEKTPQTQQDELYIHSEPLGVVLVIGTWNYPFNLTIQPMVGAIAAGNSVVLKPSELSENMASLLATIIPQYLDKDLYPVINGGVPETTELLKERFDHILYTGSTGVGKIIMTAAAKHLTPVTLELGGKSPCYVDKNCDLDVACRRIAWGKFMNSGQTCVAPDYILCDPSIQNQIVEKLKKSLKEFYGEDAKKSRDYGRIISARHFQRVMGLIEGQKVAYGGTGDAATRYIAPTILTDVDPQSPVMQEEIFGPVLPIVCVRSLEEAIQFINQREKPLALYMFSSNDKVIKKMIAETSSGGVAANDVIVHITLHSLPFGGVGNSGMGSYHGKKSFETFSHRRSCLVRPLMNDEGLKVRYPPSPAKMTQH
B7: unnamed (protein)
chain: MRALLLSGCLALVLLTQQAAAQTLLVVGDSISAALGLDTSQGWVALLQKRLADEGYDYRVVNASISGDTSAGGLARLPALLAEEKPALVVIELGGNDGLRGMAPAQLQQNLASMAQKARAEGAKVLLLGIQLPPNYGPRYIEAFSRVYGAVAAQEKTALVPFFLEGVGGVQGMMQADGIHPALAAQPRLLENVWPTLKPLL
B8: unnamed (protein)
chain: MWLRAFILATLSASAAWGHPSSPPVVDTVHGKVLGKFVSLEGFAQPVAIFLGIPFAKPPLGPLRFTPPQPAEPWSFVKNATSYPPMCTQDPKAGQLLSELFTNRKENIPLKLSEDCLYLNIYTPADLTKKNRLPVMVWIHGGGLMVGAASTYDGLALAAHENVVVVTIQYRLGIWGFFSTGDEHSRGNWGHLDQVAALRWVQDNIASFGGNPGSVTIFGESAGGESVSVLVLSPLAKNLFHRAISESGVALTSVLVKKGDVKPLAEQIAITAGCKTTTSAVMVHCLRQKTEEELLETTLKMKFLSLDLQGDPRESQPLLGTVIDGMLLLKTPEELQAERNFHTVPYMVGINKQEFGWLIPMQLMSYPLSEGQLDQKTAMSLLWKSYPLVCIAKELIPEATEKYLGGTDDTVKKKDLFLDLIADVMFGVPSVIVARNHRDAGAPTYMYEFQYRPSFSSDMKPKTVIGDHGDELFSVFGAPFLKEGASEEEIRLSKMVMKFWANFARNGNPNGEGLPHWPEYNQKEGYLQIGANTQAAQKLKDKEVAFWTNLFAKKAVEKPPQTEHIEL
B9: unnamed (protein)
chain: MTVTDIILIHGALNRGACYDAVVPLLEARGYRVHAPDLTGHTPGDGGHLSVVDMEHYTRPVADILARAEGQSILLGHSLGGASISWLAQHHPDKVAGLIYLTAVLTAPGITPETFVLPGEPNRGTPHALDLIQPVDEGRGLQADFSRLERLREVFMGDYPGEGMPPAEQFIQTQSTVPFGTPNPMEGRALEIPRLYIEALDDVVIPIAVQRQMQKEFPGPVAVVSLPASHAPYYSMPERLAEAIADFADAPAEYRQTATKAGPDRPAGADGGRADRADLP
B10: unnamed (protein)
chain: MRKAPLLRFTLASLALACSQALAGPSPYSTLIVFGDSLADAGQFPDLVGGTPGARFTNRDADGNFAPVSPMILGGRLGVAPGDLNPSTSVGIQPDGNNWAVGGYTTQQILDSITTTSETVIPPGNPNAGLVLRERPGYLANGLRADPNALYYLTGGGNDFLQGLVNSPADAVAAGARLAASAQALQQGGARYIMVWLLPDLGQTPNFSGTPQQNPLSLLSAAFNQSLISQLGQIDAQIIPLNIPLLLSEALASPSQFGLASDQNLVGTCYSGDSCVENPVYGINGTTPDPTKLLFNDSVHPTIAGQQLIADYAYSILAAPWELTLLPEMAHASLRAHQDELRNQWQTPWQAVGQWQAFVASGAQDLDFDGQHSAASGDGRGYNLTVGGSYRLNDAWRLGLAGGANRQKLEAGEQDSDYKLNSYMASAFAQYRQDRWWADAALTAGHLDYSDLKRTFALGVNDRSEKGDTDGEAWAMSGRLGYNLAADTSNWQLAPFISADYARVKVDGYDEKSGRSTALGFDDQERTSRRLGVGLLGSVQVLPSTRLFAEVAQEHEFEDDEQDVTMHLTSLPANDFTLTGYTPHSDLTRASLGVSHELVAGVHLRGNYNWRKSDELTQQGISVGVSVDF

We go through ten proteins from the PETadex activity labels.

Substrate in the first series: p-NP-C2
Conditions: pH 7.5; 25 °C.
Turning to B1, the Km (commonly the substrate concentration at which the rate is half of its maximum) amounted to 18600 µM; the kcat (usually the number of substrate molecules converted per active site and unit of time at saturation) was determined as 0.67 s⁻¹; the kcat/Km – broadly, the turnover number divided by the Michaelis constant – turned out to be 36 M⁻¹ s⁻¹.

Substrate in the next series: p-NP-C4
The settings on record: pH 8; 37 °C.
As for B2, the Km was found to be 31 µM, the kcat was found to be 70 s⁻¹ and the kcat/Km is 2.26e+06 M⁻¹ s⁻¹.

On to B8, for which the Km stood at 27 µM, the kcat came to 17 s⁻¹ and the kcat/Km amounted to 630000 M⁻¹ s⁻¹.

Substrate in another series: p-NP-C2
The settings on record: pH 7.4; 37 °C.
Consider B3, for which the Km stood at 520 µM, the kcat was determined as 20.2 s⁻¹ and the kcat/Km came to 38800 M⁻¹ s⁻¹.

Substrate in another series: p-NP-C4
Conditions: pH 7.4; 37 °C.
B3: the Km came out at 140 µM, the kcat came to 27.4 s⁻¹ and the kcat/Km amounted to 196000 M⁻¹ s⁻¹.

Staying with this series, now noted: pH 8; 30 °C.
For B4, the Km amounted to 250 µM, the turnover number (kcat) turned out to be 342 s⁻¹ and the kcat/Km was 1.37e+06 M⁻¹ s⁻¹.

The same series, now with this note: pH 8; 50 °C.
Consider B4, for which the Km came out at 180 µM, the kcat was 196 s⁻¹ and the kcat/Km amounted to 1.09e+06 M⁻¹ s⁻¹.

Still in this series, the particulars now being: pH 8; 70 °C.
B4: the Michaelis constant (Km) worked out at 190 µM, the kcat was 49 s⁻¹ and the kcat/Km is 258000 M⁻¹ s⁻¹.

Still in this series, the particulars now being: pH 7.2.
Consider B5, for which the Km was 700 µM, the kcat was determined as 247 s⁻¹ and the kcat/Km stood at 353000 M⁻¹ s⁻¹.

For B10, the Km amounted to 300 µM.

Substrate in another series: p-NP-C2
Conditions: pH 7.4; 25 °C.
As for B6, the Km came to 200 µM, the kcat came to 1.43 s⁻¹ and the catalytic efficiency (kcat/Km) was 7170 M⁻¹ s⁻¹.

Substrate in another series: p-NP-C4
Conditions: pH 7.2; part of the chain shown.
B7: the Km was found to be 1000 µM, the kcat was 12 s⁻¹ and the kcat/Km was determined as 12000 M⁻¹ s⁻¹.

Substrate in a further series: p-NP-C2
Conditions: pH 7.5; 37 °C.
B9: the Km came to 124 µM, the kcat amounted to 183 s⁻¹ and the kcat/Km came out at 1.48e+06 M⁻¹ s⁻¹.
